Among the targets are AMPKα2(h) (human) (UniProt P54646); CDK5/p35(h) (human) (UniProt Q00535); CHK2(h) (human) (UniProt O96017); Fer(h) (human) (UniProt P16591); Fes(h) (human) (UniProt P07332); Flt4(h) (human) (UniProt P35916); Hck(h) activated (human) (UniProt P08631); JNK2α2(h) (human) (UniProt P45984); MEK1(h) (human) (UniProt Q02750); MLCK(h) (human); Tie2(Y897S)(h) (human) (UniProt Q02763); cKit(D816H)(h) (human) (UniProt P10721); cKit(h) (human) (UniProt P10721).

Common to all, as to assay: cell-based or functional assay
The next test deals with T1, Flt3(D835Y)(h) (human) (UniProt P36888).
T1 sequence (looked up): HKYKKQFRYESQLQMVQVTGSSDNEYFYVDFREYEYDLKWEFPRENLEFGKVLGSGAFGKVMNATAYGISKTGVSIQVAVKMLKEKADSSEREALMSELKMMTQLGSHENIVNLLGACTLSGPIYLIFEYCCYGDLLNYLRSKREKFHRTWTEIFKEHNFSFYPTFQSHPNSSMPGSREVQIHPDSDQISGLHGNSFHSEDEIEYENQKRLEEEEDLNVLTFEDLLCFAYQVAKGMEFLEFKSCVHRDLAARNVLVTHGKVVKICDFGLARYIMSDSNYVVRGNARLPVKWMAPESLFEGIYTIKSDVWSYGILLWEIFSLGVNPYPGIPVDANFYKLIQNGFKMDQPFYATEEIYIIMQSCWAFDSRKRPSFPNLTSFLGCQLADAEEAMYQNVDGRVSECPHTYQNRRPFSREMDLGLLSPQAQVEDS

The target in another test is T2, IKKα(h) (human) (UniProt O15111).
T2 sequence (looked up): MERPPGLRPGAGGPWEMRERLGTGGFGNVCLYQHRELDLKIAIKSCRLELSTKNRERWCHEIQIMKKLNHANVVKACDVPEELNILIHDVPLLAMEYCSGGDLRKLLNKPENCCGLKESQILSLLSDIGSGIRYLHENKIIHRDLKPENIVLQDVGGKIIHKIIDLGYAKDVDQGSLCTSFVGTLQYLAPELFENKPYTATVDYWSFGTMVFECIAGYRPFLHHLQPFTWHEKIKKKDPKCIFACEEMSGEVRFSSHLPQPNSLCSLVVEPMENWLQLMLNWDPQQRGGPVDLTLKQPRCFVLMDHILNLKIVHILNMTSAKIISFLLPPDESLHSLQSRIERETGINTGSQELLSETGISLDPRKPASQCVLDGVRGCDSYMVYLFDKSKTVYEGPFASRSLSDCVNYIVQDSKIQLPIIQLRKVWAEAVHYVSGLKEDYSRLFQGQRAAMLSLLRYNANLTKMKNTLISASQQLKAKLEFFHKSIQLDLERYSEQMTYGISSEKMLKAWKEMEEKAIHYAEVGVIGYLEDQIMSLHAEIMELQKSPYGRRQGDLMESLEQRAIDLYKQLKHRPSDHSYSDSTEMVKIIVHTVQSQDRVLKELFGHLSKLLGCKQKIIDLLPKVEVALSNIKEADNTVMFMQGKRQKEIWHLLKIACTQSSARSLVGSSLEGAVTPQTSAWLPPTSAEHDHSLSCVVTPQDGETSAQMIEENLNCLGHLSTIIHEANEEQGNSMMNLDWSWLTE

In another test the target is T3, PKG1β(h) (human) (UniProt Q13976).
T3 sequence (looked up): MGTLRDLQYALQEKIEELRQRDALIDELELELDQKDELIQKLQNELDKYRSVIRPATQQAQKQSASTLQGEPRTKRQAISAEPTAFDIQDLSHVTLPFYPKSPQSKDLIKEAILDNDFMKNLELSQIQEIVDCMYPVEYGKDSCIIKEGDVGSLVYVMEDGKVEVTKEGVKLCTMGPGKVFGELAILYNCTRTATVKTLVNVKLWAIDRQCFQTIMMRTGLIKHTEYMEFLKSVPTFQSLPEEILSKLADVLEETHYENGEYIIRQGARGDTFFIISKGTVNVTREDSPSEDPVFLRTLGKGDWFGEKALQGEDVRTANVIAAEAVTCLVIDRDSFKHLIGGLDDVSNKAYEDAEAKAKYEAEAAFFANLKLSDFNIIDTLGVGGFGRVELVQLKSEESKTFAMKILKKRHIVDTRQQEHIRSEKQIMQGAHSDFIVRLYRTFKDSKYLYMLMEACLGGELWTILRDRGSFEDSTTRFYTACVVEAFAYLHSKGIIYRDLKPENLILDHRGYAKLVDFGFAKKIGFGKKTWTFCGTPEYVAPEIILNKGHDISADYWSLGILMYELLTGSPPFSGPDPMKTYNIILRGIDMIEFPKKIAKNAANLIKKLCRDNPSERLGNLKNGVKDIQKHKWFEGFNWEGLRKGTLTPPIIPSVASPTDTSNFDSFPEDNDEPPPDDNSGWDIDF

The next test has as its target T4, TAO1(h) (human) (UniProt Q7L7X3).
T4 sequence (looked up): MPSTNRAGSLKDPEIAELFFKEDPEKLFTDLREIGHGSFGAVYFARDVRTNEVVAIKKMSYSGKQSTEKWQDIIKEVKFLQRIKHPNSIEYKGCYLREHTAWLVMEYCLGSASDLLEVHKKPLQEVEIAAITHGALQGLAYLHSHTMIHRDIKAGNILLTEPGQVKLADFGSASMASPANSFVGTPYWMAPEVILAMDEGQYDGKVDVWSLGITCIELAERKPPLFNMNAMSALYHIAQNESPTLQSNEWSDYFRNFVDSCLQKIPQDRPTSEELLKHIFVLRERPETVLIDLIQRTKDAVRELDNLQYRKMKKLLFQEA

Drawing on patent publication US20150064134A1, this text covers % activity for three substances.

CHK2(h) (human), sequence (O96017 5-543 limits assumed): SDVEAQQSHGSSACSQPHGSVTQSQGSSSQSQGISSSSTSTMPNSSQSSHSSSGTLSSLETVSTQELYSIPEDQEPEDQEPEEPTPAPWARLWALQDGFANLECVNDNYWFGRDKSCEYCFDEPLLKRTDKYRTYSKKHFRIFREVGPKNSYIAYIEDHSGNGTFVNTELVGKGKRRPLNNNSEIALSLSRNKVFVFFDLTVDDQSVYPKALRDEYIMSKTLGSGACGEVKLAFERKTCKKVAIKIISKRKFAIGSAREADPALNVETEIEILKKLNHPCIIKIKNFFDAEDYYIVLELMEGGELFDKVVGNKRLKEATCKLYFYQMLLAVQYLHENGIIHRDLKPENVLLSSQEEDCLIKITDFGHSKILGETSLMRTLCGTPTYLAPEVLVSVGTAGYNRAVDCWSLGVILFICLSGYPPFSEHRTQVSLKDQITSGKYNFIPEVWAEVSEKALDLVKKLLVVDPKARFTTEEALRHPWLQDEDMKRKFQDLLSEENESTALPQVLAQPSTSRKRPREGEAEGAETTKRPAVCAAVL
Flt4(h) (human), sequence (P35916 800-1363 limits assumed): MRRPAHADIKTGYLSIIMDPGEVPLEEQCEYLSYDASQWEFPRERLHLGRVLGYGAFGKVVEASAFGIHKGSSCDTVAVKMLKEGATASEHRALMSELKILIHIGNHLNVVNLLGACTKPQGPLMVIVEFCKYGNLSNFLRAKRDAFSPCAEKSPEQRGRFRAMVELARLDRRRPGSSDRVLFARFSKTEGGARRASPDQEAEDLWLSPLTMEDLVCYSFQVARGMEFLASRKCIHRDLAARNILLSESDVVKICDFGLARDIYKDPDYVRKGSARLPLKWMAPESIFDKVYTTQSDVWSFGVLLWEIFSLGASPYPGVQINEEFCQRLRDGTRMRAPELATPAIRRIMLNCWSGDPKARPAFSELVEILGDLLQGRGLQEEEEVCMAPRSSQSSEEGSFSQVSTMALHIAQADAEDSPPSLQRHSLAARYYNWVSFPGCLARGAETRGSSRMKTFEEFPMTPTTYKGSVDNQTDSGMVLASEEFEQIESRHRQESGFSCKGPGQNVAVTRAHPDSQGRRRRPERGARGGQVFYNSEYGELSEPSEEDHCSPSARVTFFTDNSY
cKit(D816H)(h) (human), sequence (P10721 544-976 D816H): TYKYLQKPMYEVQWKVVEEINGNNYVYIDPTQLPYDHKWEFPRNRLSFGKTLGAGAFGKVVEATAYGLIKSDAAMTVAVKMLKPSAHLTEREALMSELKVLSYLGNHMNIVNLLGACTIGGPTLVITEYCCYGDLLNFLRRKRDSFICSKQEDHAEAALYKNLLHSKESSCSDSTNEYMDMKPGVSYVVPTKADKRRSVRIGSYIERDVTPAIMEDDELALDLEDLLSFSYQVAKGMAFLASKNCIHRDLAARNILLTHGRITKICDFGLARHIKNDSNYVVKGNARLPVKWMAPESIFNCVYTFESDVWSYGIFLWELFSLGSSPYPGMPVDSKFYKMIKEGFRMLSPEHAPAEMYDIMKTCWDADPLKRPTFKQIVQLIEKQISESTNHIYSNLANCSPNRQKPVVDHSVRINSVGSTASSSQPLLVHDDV
Tie2(Y897S)(h) (human), sequence (Q02763 771-1124 Y897S limits assumed): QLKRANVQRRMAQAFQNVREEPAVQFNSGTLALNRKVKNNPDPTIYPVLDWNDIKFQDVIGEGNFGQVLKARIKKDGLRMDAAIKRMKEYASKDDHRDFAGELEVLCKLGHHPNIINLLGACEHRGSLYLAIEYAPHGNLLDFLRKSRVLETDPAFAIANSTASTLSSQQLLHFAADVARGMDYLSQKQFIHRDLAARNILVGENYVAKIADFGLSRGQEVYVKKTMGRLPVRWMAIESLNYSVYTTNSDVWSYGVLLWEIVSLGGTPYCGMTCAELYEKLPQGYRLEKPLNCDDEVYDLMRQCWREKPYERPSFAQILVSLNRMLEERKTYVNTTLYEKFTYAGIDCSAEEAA
cKit(h) (human), sequence (P10721 544-976): as the sequence (P10721 544-976 D816H) above, with H273D counted along it

For MMI-0400 (peptide), the % activity at 100 µM with AMPKα2(h) (human) was 58%; with CDK5/p35(h) (human), 76%; with CHK2(h) (human), 54%; with Fer(h) (human), 108%; with Fes(h) (human), 16%; with Flt3(D835Y)(h) (human), 71%. For the same substance, the % activity at 100 µM came to 89% with Flt4(h) (human); 81% with Hck(h) activated (human); 87% with IKKα(h) (human); 96% with JNK2α2(h) (human); 77% with MEK1(h) (human); 1% with MLCK(h) (human). Moreover, the % activity at 100 µM with PKG1β(h) (human) came to 53%; with TAO1(h) (human) it was 73%; with Tie2(Y897S)(h) (human), 87%; in the test with cKit(D816H)(h) (human), 143%; with cKit(h) (human), 43%.
Regarding MMI-0500 (peptide), the % activity at 100 µM with AMPKα2(h) (human) was found to be 9%; in the test with CDK5/p35(h) (human), 59%; in the test with CHK2(h) (human), 13%; with Fer(h) (human), 196%; with Fes(h) (human), 23%; in the test with Flt3(D835Y)(h) (human), 65%. Further, the % activity at 100 µM was determined as 73% with Flt4(h) (human); 67% in the test with Hck(h) activated (human); 50% with IKKα(h) (human); 81% with JNK2α2(h) (human); 21% with MEK1(h) (human); 0% with MLCK(h) (human). Moreover, the % activity at 100 µM in the test with PKG1β(h) (human) stood at 24%; with TAO1(h) (human), 24%; in the test with Tie2(Y897S)(h) (human) it was 80%; with cKit(D816H)(h) (human) it was 194%; in the test with cKit(h) (human), 45%.
For the substance MMI-0300 (peptide), the % activity at 100 µM with AMPKα2(h) (human) was 54%; in the test with CDK5/p35(h) (human), 79%; with CHK2(h) (human), 66%; with Fer(h) (human), 130%; with Fes(h) (human), 20%; in the test with Flt3(D835Y)(h) (human), 80%. Moreover, the % activity at 100 µM worked out at 83% in the test with Flt4(h) (human); 82% in the test with Hck(h) activated (human); 93% with IKKα(h) (human); 98% with JNK2α2(h) (human); 77% with MEK1(h) (human); 2% with MLCK(h) (human). Besides, the % activity at 100 µM with PKG1β(h) (human) came out at 50%; with TAO1(h) (human), 82%; in the test with Tie2(Y897S)(h) (human) it was 83%; with cKit(D816H)(h) (human) it was 126%; with cKit(h) (human), 53%.
